From patent US20210268096A1 (TRELLIS BIOSCIENCE, published 2021)

T1: recombinant RSV G[161-197] (respiratory syncytial virus (RSV), UniProt P03423 161-197)
T1 chain: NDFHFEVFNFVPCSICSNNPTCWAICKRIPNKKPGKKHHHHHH

B1: mAb 3D3 (antibody, V domains shown)
VH: EEQLVESGGGLVQPGRSLRLSCVGSGLRFEEHAMHWVRQAPGRGLEWVSGISWNSGSVGYADSVKGRFTTSRDNAKDILFLEMNTLRSEDTALYFCAIMVATTKNDFHYYKDVWGKGTTVTVSS
VL: QIVLTQSPATLSLSPGERATLSCKASQSVSNHLAWYQQKPGQAPRLLIYETSNRATGIPPRFSGSGSGTDFTLTISSLEPEDFAVYYCQQRNNWYTFGQGTKLEIK
B2: mAb 2D10 (antibody, V domains shown)
VH: QVQLVQSGPEVKKPGASVRLSCKASGYVFTNYGVSWVRQAPGQGLEWMGWSSPYNGNTYYAQKLKARVTMTTDTSTNTAYMELRSLRSDDTAVYYCGRDMLGVVQAVAGPFDSWGQGTLVTVSS
VL: DTPMTQSPSSVSASVGDRVTISCRASQGISNSLAWYQQKLGKAPQLLIYAASSLQSGVPSRFSGSGSGTDFTLTISSLQPEDFATYYCQQTNTFPFTFGPGTKVEVRR

What was measured:
[1] = molecular target: human chemokine receptor CX3CR1 (human) (UniProt P49238); assay: cell-based or functional assay
[2] = molecular target: T1, recombinant RSV G[161-197]; assay: cell-based or functional assay

human chemokine receptor CX3CR1 (human), sequence (P49238 whole entry): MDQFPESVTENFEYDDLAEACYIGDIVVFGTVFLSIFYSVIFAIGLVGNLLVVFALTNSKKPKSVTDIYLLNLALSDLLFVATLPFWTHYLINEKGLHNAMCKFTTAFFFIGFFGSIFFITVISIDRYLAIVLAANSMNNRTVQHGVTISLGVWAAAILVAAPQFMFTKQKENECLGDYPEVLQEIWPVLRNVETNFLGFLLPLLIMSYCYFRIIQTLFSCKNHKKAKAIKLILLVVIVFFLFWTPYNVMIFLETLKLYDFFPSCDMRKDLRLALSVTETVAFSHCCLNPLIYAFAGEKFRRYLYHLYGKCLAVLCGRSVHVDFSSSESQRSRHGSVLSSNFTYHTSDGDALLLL

Molecule | chemotactic index (fold-increase in THP-1 cell migration vs serum-free media) (fold (chemotactic index)) [1] | chemotactic index of 5 nM RSV G[161-197] pre-incubated with 25 nM mAb [2]
RSV G ectodomain (G[ecto]) (from UniProt P03423 64-298) | 3.9 | 
recombinant RSV G[161-197] (from UniProt P03423 161-197) (peptide) | 4.2 | 
B1 |  | 1.5 fold (chemotactic index)
B2 |  | 1 fold (chemotactic index)
